Measurements from US20260098858A1 (NAVROGEN, published 2026).

B1: soluble human ICAM-1/CD54 (receptor)
chain: QTSVSPSKVILPRGGSVLVTCSTSCDQPKLLGIETPLPKKELLLPGNNRKVYELSNVQEDSQPMCYSNCPDGQSTAKTFLTVYWTPERVELAPLPSWQPVGKNLTLRCQVEGGAPRANLTVVLLRGEKELKREPAVGEPAEVTTTVLVRRDHHGANFSCRTELDLRPQGLELFENTSAPYQLQTFVLPATPPQLVSPRVLEVDTQGTVVCSLDGLFPVSEAQVHLALGDQRLNPTVTYGNDSFSAKASVSVTAEDEGTQRLTCAVILGNQSQETLQTVTIYSFPAPNVILTKPEVSEGTEVTVKCEAHPRAKVTLNGVPAQPLGPRAQLLLKATPEDNGRSFSCSATLEVAGQLIHKNQTRELRVLYGPRLDERDCPGNWTWPENSQQTPMCQAWGNPLPELKCLKDGTFPLPIGESVTVTRDLEGTYLCRARSTQGEVTRKVTVNVLSPRYE
notes: also called sICAM-1; SICAM-1

Experiments:
[1] = target: T1, human serum albumin (human, UniProt P02768 25-609); experiment: ELISA: immobilized control protein, biotinylated sICAM-1 probe (FIG. 1B)
T1 construct: also called HSA

[2] = target: B1; experiment: ELISA: immobilized monomeric CH2 domain, biotinylated sICAM-1 probe (FIG. 4B)

B1: no binding (tested: 5 µg/mL biotinylated sICAM-1) [1].

B2: secreted recombinant monomeric heavy chain CH2 domain (other, human, UniProt P01857 114-223, looked up)
chain: APELLGGPSVFLFPPKPKDTLMISRTPEVTCVVVDVSHEDPEVKFNWYVDGVEVHNAKTKPREEQYNSTYRVVSVLTVLHQDWLNGKEYKCKVSNKALPAPIEKTISKAK
notes: domain: CH2
B2: no binding (tested: 0.5 µg/mL biotinylated sICAM-1) [2].
